The assay concerns the target Asialoglycoprotein receptor 1 (ASGR1) on the surface of HEPG2 cells (human) (UniProt P07306). Put plainly: cell-based or functional assay.
UniProt P07306, sequence (P07306 whole entry): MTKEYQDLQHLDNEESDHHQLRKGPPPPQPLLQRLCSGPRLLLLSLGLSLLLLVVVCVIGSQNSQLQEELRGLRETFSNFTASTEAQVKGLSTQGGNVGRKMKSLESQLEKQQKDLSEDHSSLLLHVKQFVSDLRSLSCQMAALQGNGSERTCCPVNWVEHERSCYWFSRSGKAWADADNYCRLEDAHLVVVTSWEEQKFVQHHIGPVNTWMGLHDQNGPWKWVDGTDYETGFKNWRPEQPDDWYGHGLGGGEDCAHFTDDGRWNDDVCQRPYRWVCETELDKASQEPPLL

As for “Anti-Asialoglycoprotein Receptor 1/HL-1 antibody (abCAM, Product Number ab49355)”, the improvement of mmu-miR-298-5p uptake efficiency into HEPG2 cells, against unmodified EVs came to 60%; the relative quantification of mmu-miR-298-5p in Hep-G2 cells (qRT-PCR, relative ratio to control cells) (relative ratio) is 2000; the relative quantification of mmu-miR-298-5p in Hep-G2 cells, against DharmaFECT transfection is 8 fold.

The record behind these values is US20220088215A1.
